Like-named read-outs stand apart in the source and are kept apart here.
Experiments:
[1] = Time constant of plasma clearance; format: in vivo, SCID mice; conditions: i.v. bolus, arterial blood within 30 min
[2] = Data from Yuan et al. (1995); cited from earlier work
[3] = Data from Yuan et al. (1995); cited from earlier work; remark: listed apart in the source
[4] = Isoelectric focusing of charge-modified proteins; format: physicochemical
Procedure: Isoelectric points of the proteins were determined by isoelectric focusing using polyacrylamide gel slabs on a vertical electrofocusing apparatus. pl was quantified by comparison with protein standards (Bio-Rad) after Coomassie Blue staining of the gels. The molecular weights of the proteins were analyzed by SDS-PAGE (Mini-Protean II; Bio-Rad) with and without reducing agent P-mercaptoethanol in the sample buffer.

[5] = normal tissues, Adamson et al. (1988); cited from earlier work

## Anionized BSA: rhodamine-labeled bovine serum albumin anionized by succinylation
[1]
  Median K, time constant of concentration decay in the plasma: 40.8 100s

## Native BSA: fluorescently labeled native bovine serum albumin, data from Yuan et al. (1995)
[2]
  Median K, time constant of concentration decay in the plasma: 80.5 100s
[3]
  pI (range): 4.5

## Cationized BSA: rhodamine-labeled bovine serum albumin cationized by conjugation with hexamethylenediamine
[4]
  pI (range): 8.6-9.1
[1]
  Median K, time constant of concentration decay in the plasma: 12.7 100s

## (x-lactalbumin: protein, MW=14,176; net charge −10 (Adamson et al. 1988)
[5]
  microvascular permeability relative to ribonuclease: approximately 50%

Reference: patent US20020034537A1, “Cationic diagnostic, imaging and therapeutic agents associated with activated vascular sites” (priority 2000, published 2002)
